The record followed here is the supplement of paper PMC7877785.

The data set is described as follows: self-splicing fitness, log relative to wild type (ln ratio); higher = more splicing; Tetrahymena group I intron in knt gene, E. coli kanamycin selection, DiMSum; sequences stand for … in CUCUCU…GGAGGGAAAAGUUAUCAGGCAUGCACCUGGUAGCUAGUCUUUAAACCAAUAGAUUGCAUCGGUUUAAAAGGCAAGACCGUCAAAUUGCGGGAAAGGGGUCAACAGCCGUUCAGUACCAAGUCUCAGGGGAAACUUUGAGAUGGCCUUGCAAAGGGUAUGGUAAUAAGCUGACGGACAUGGUCCUAACCACGCAGCCAAGUCCUAAGUCAACAGAUCUUCUGUUGAUAUGGAUGCAGUUCACAGACUAAAUGUCGGUCGGGGAAGAUGUAUUCUUCUCAUAAGAUAUAGUCGGACCUCUCCUUAAUGGGAGCUAGCGGAUGAAGUGAUGCAACACUGGAGCCGCUGGGAACUAAUUUGUAUGCGAAAGUAUAUUGAUUAGUUUUGGAGUACUCGUGGUCG
The essentials:
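Colonies from six replicate transformations of E. coli BL21(DE3) were pooled and amplicon-sequenced on an Illumina HiSeq 2500. The library placed an intron with all eight P1ex-region nucleotides randomised inside the knt kanamycin-resistance gene on pET-22b(+), and cells grew overnight at 37°C or 30°C on LB agar with or without 25 μg/mL kanamycin (plus 100 μg/mL carbenicillin, 50 μM IPTG, 0.2% rhamnose). Fitness is the DiMSum error-weighted combination of wild-type-normalised replicate fold changes, kanamycin versus none.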

± gives the uncertainty stated by the source.

As to UAACAGCAAUAUUACGGACU, the “self-splicing fitness (ln)” value is -1.02 ± 0.064 (30 °C) and -0.504 ± 0.089 (37 °C). For UCUAAGCAAUAUUACGCGGC, the “self-splicing fitness (ln)” value (37 °C) was -1.59 ± 0.36.

Take GUGAAGCAAUAUUACGUCAA: the “self-splicing fitness (ln)” value is -1.07 ± 0.077 (30 °C) and -0.245 ± 0.084 (37 °C). In the same order, the values of AUCAAGCAAUAUUACGCGCC are -1.23 ± 0.14 and -0.474 ± 0.17. In the same order, the values of UGCCAGCAAUAUUACGCACC are -2.19 ± 0.28 and -1.32 ± 0.35. In the same order, the values of GAUUAGCAAUAUUACGGACU are -0.413 ± 0.086 and -0.223 ± 0.1. Regarding GUAUAGCAAUAUUACGUUGG, the “self-splicing fitness (ln)” value by setting is: (30 °C) -3.33 ± 0.31; (37 °C) -1.12 ± 0.26. On to GAAGAGCAAUAUUACGUGUC, for which the “self-splicing fitness (ln)” value reads like this: (30 °C) -4.75 ± 0.46; (37 °C) -2.79 ± 0.27. With CGGCAGCAAUAUUACGGUUU, the “self-splicing fitness (ln)” value runs as follows: (30 °C) -2.16 ± 0.077; (37 °C) -0.769 ± 0.089. For the sequence AACCAGCAAUAUUACGGGAC, the “self-splicing fitness (ln)” value reads like this: (30 °C) -2.39 ± 0.094; (37 °C) -2.11 ± 0.09.

On to CUCAAGCAAUAUUACGGCAG, for which the “self-splicing fitness (ln)” value (30 °C) was -2.26 ± 0.068 and the “self-splicing fitness (ln)” value (37 °C) was -0.745 ± 0.092. In the same order, the values of GUAAAGCAAUAUUACGUUAA are -2 ± 0.093 and -1.69 ± 0.14.

For AAAUAGCAAUAUUACGUACG, the “self-splicing fitness (ln)” value is, setting by setting: (30 °C) -1.1 ± 0.11; (37 °C) -1.16 ± 0.13. Turning to CACGAGCAAUAUUACGCAUC, the “self-splicing fitness (ln)” value (30 °C) was -1.74 ± 0.34. As to UAGAAGCAAUAUUACGCAUG, the “self-splicing fitness (ln)” value is, setting by setting: (30 °C) -1.12 ± 0.1; (37 °C) 0.583 ± 0.12. Regarding CCCAAGCAAUAUUACGCUGC, the “self-splicing fitness (ln)” value runs as follows: (30 °C) -2.44 ± 0.2; (37 °C) -2.43 ± 0.41.

On to GUAGAGCAAUAUUACGAGAA, for which the “self-splicing fitness (ln)” value reads like this: (30 °C) -3.8 ± 0.34; (37 °C) -1.72 ± 0.47. As to UGGCAGCAAUAUUACGGAUG, the “self-splicing fitness (ln)” value is -1.79 ± 0.17 (30 °C) and -0.817 ± 0.19 (37 °C). In the same order, the values of ACCCAGCAAUAUUACGACCC are -1.06 ± 0.13 and 0.555 ± 0.18. For CACUAGCAAUAUUACGGUCG, the “self-splicing fitness (ln)” value (30 °C) is -0.198 ± 0.072 and the “self-splicing fitness (ln)” value (37 °C) came out at 0.007 ± 0.085. AGCGAGCAAUAUUACGCGAC: the “self-splicing fitness (ln)” value (30 °C) was -2.33 ± 0.27. With CCAUAGCAAUAUUACGCAAG, the “self-splicing fitness (ln)” value is, setting by setting: (30 °C) -2.84 ± 0.17; (37 °C) -0.562 ± 0.13. In the same order, the values of AGGAAGCAAUAUUACGCGUA are -1.87 ± 0.15 and -0.669 ± 0.11.

For AACAAGCAAUAUUACGGAGU, the “self-splicing fitness (ln)” value is, setting by setting: (30 °C) -2.72 ± 0.07; (37 °C) -1.58 ± 0.078. In the same order, the values of GCGGAGCAAUAUUACGUGCG are -3.79 ± 0.35 and -2.55 ± 0.27. With GGAAAGCAAUAUUACGGGUU, the “self-splicing fitness (ln)” value runs as follows: (30 °C) -2.99 ± 0.13; (37 °C) -0.727 ± 0.11.

As for UACCAGCAAUAUUACGCAGU, the “self-splicing fitness (ln)” value was -4.06 ± 0.27 (30 °C) and -2.62 ± 0.18 (37 °C).

On to GGCGAGCAAUAUUACGGCUA, for which the “self-splicing fitness (ln)” value was -0.343 ± 0.13 (30 °C) and 0.287 ± 0.14 (37 °C). For GACAAGCAAUAUUACGCCCG the same measures were -1.26 ± 0.17 and -0.702 ± 0.37. In the same order, the values of CCGAAGCAAUAUUACGUUCG are -3.33 ± 0.13 and -1.26 ± 0.11. On to CUCUAGCAAUAUUACGCCUG, for which the “self-splicing fitness (ln)” value (30 °C) is -2.33 ± 0.36.

In the case of UGUAAGCAAUAUUACGUGGA, the “self-splicing fitness (ln)” value by setting is: (30 °C) -2.52 ± 0.25; (37 °C) -1.78 ± 0.22. Take UGUAAGCAAUAUUACGAACG: the “self-splicing fitness (ln)” value was 0.23 ± 0.13 (30 °C) and 0.542 ± 0.13 (37 °C). Regarding AGAUAGCAAUAUUACGCGGU, the “self-splicing fitness (ln)” value (30 °C) was -2.93 ± 0.17 and the “self-splicing fitness (ln)” value (37 °C) is -2.28 ± 0.15. In the same order, the values of ACCUAGCAAUAUUACGACCU are -1.26 ± 0.1 and 0.455 ± 0.12. In the case of UCAAAGCAAUAUUACGAUUU, the “self-splicing fitness (ln)” value was -3.58 ± 0.24 (30 °C) and -2.3 ± 0.22 (37 °C).

For the sequence UUAGAGCAAUAUUACGAUAG, the “self-splicing fitness (ln)” value by setting is: (30 °C) -0.594 ± 0.1; (37 °C) -0.147 ± 0.14.

On to CUAGAGCAAUAUUACGCGAA, for which the “self-splicing fitness (ln)” value by setting is: (30 °C) -3.1 ± 0.38; (37 °C) -2.09 ± 0.43. Turning to CGCCAGCAAUAUUACGAACG, the “self-splicing fitness (ln)” value is, setting by setting: (30 °C) -0.982 ± 0.097; (37 °C) 0.0565 ± 0.12. In the same order, the values of UUACAGCAAUAUUACGGAUA are -2.25 ± 0.21 and -0.725 ± 0.12. For CGCGAGCAAUAUUACGGUUU the same measures were -4.02 ± 0.22 and -2.55 ± 0.18. In the same order, the values of GGGAAGCAAUAUUACGGUUC are -2.44 ± 0.18 and -1.03 ± 0.22. For the sequence AGGGAGCAAUAUUACGAAUG, the “self-splicing fitness (ln)” value is, setting by setting: (30 °C) -3.27 ± 0.3; (37 °C) -2.38 ± 0.39. With CUUUAGCAAUAUUACGUCAG, the “self-splicing fitness (ln)” value was -1.03 ± 0.12 (30 °C) and -0.4 ± 0.13 (37 °C). Take UUCGAGCAAUAUUACGGGGG: the “self-splicing fitness (ln)” value is -2.88 ± 0.3 (30 °C) and -2.23 ± 0.42 (37 °C). For GCUUAGCAAUAUUACGCGAG the same measures were -2.04 ± 0.22 and -2.56 ± 0.33.

In the case of AGCCAGCAAUAUUACGCGGA, the “self-splicing fitness (ln)” value (30 °C) was -3.48 ± 0.19 and the “self-splicing fitness (ln)” value (37 °C) was -2.23 ± 0.12. For GGCUAGCAAUAUUACGGCGG, the “self-splicing fitness (ln)” value reads like this: (30 °C) -1.32 ± 0.13; (37 °C) -0.684 ± 0.19. In the same order, the values of GGGUAGCAAUAUUACGAGGC are -3.89 ± 0.47 and -2.19 ± 0.25. For ACCCAGCAAUAUUACGUUAG the same measures were -3.31 ± 0.11 and -3.09 ± 0.15. For AUCGAGCAAUAUUACGCGAA the same measures were -1.68 ± 0.2 and -0.699 ± 0.2. As for GUCGAGCAAUAUUACGUCGA, the “self-splicing fitness (ln)” value (30 °C) is -3.97 ± 0.42 and the “self-splicing fitness (ln)” value (37 °C) was -2.65 ± 0.44. Turning to AAGCAGCAAUAUUACGAGAC, the “self-splicing fitness (ln)” value (37 °C) was -0.225 ± 0.15. On to UAGAAGCAAUAUUACGUCUA, for which the “self-splicing fitness (ln)” value runs as follows: (30 °C) -1.81 ± 0.16; (37 °C) -0.539 ± 0.14. Consider GUUCAGCAAUAUUACGGCGG, for which the “self-splicing fitness (ln)” value reads like this: (30 °C) -4.13 ± 0.47; (37 °C) -2.06 ± 0.38. As to UAUGAGCAAUAUUACGAUUU, the “self-splicing fitness (ln)” value runs as follows: (30 °C) -3.29 ± 0.26; (37 °C) -1.76 ± 0.22. For CUCGAGCAAUAUUACGGAGU the same measures were -3.07 ± 0.22 and -2.57 ± 0.31. For CGUAAGCAAUAUUACGAUGG, the “self-splicing fitness (ln)” value reads like this: (30 °C) -1.37 ± 0.097; (37 °C) -0.574 ± 0.13. For UCGAAGCAAUAUUACGCACA the same measures were -1.23 ± 0.13 and -0.472 ± 0.16. Consider UUUCAGCAAUAUUACGUUCU, for which the “self-splicing fitness (ln)” value (37 °C) is -1.89 ± 0.21. Take UGACAGCAAUAUUACGACUG: the “self-splicing fitness (ln)” value (30 °C) was -0.341 ± 0.06 and the “self-splicing fitness (ln)” value (37 °C) came to 0.371 ± 0.091. Consider CGAAAGCAAUAUUACGCUAA, for which the “self-splicing fitness (ln)” value is, setting by setting: (30 °C) -3.88 ± 0.4; (37 °C) -1.53 ± 0.21. For AGUAAGCAAUAUUACGUCGC, the “self-splicing fitness (ln)” value (37 °C) was -1.65 ± 0.31. Regarding UCUCAGCAAUAUUACGUAUG, the “self-splicing fitness (ln)” value is -2.86 ± 0.42 (30 °C) and -2.79 ± 0.38 (37 °C). For CCUAAGCAAUAUUACGUGUG, the “self-splicing fitness (ln)” value (30 °C) was -1.83 ± 0.057 and the “self-splicing fitness (ln)” value (37 °C) is -1.49 ± 0.075.

For AUCUAGCAAUAUUACGUCUC, the “self-splicing fitness (ln)” value was -2.8 ± 0.26 (30 °C) and -0.391 ± 0.22 (37 °C).

Turning to UAUGAGCAAUAUUACGCUGC, the “self-splicing fitness (ln)” value was -4.14 ± 0.31 (30 °C) and -2.78 ± 0.3 (37 °C).

In the case of GUUUAGCAAUAUUACGCCGA, the “self-splicing fitness (ln)” value (30 °C) was -2.93 ± 0.4. Take CGAUAGCAAUAUUACGUGAG: the “self-splicing fitness (ln)” value runs as follows: (30 °C) -0.997 ± 0.07; (37 °C) -0.771 ± 0.091. For GGCCAGCAAUAUUACGACUU the same measures were -0.142 ± 0.084 and 0.435 ± 0.11. In the same order, the values of AGUAAGCAAUAUUACGAACA are -0.711 ± 0.13 and -0.282 ± 0.14. For the sequence ACAGAGCAAUAUUACGAUUC, the “self-splicing fitness (ln)” value is, setting by setting: (30 °C) -2.88 ± 0.27; (37 °C) -1.72 ± 0.31. On to GUACAGCAAUAUUACGGAGG, for which the “self-splicing fitness (ln)” value is, setting by setting: (30 °C) -3.92 ± 0.34; (37 °C) -2.92 ± 0.44. As for GCUUAGCAAUAUUACGGGUC, the “self-splicing fitness (ln)” value runs as follows: (30 °C) -3.24 ± 0.23; (37 °C) -2.31 ± 0.28.

For UACUAGCAAUAUUACGCCCU, the “self-splicing fitness (ln)” value is, setting by setting: (30 °C) -0.435 ± 0.14; (37 °C) -0.784 ± 0.15. In the same order, the values of UGUCAGCAAUAUUACGGACC are -0.173 ± 0.15 and -2.33 ± 0.17. As to GGAAAGCAAUAUUACGAUAG, the “self-splicing fitness (ln)” value is, setting by setting: (30 °C) -3.1 ± 0.34; (37 °C) -1.16 ± 0.2.
